Data on two molecules can be found in US20250306040A1 (UNIVERSITY OF KENTUCKY RESEARCH FOUNDATION, published 2025).

No end group written: not given here.

The target in assay [1] is T1, Aβ40 synthetic peptide (AS-24235, Anaspec) (human, UniProt P05067 672-711).
T1 construct: domain: Aβ40; also called human Aβ40
Briefly: time course (0 to 24 hours) of sandwich ELISA signal of human amylin incubated with Aβ40, in parallel with Th-T fluorescence. Background: ELISA stands for enzyme-linked immunosorbent assay.

Assay [2] concerns the target T1, Aβ40 synthetic peptide (AS-24235, …). Nature of the assay: amylin-Aβ sandwich ELISA on co-incubated peptides, human amylin against rat amylin. The procedure: The reaction was stopped by adding 50 μL of stop solution (N600, Thermo Scientific) after developing the signals, the plate was read at 450 nm in a spectrophotometer. Amylin-Aβ concentrations were calculated by generating a graph between relative optical density (O.D.) 450 of standards vs standard concentrations, after subtracting the optical density of standard blank and sample blank from the optical density of standards and samples respectively.
Amylin-Aβ aggregates were prepared using the procedure described by O'Nuallain et al. Briefly, 30 μM human amylin synthetic peptide (AS-60254-1, Anaspec) was incubated in PBSA (PBS+0.05% sodium azide) in a water bath at 37° C. for 5 hrs. Aβ₄₀ synthetic peptide (16.2 μM) (AS-24235, Anaspec) was preincubated at 37° C. for 2 hrs. […]
Specificity of amylin-Aβ sandwich ELISA was confirmed using a solution phase amylin-Aβ aggregation assay described in O'Nuallain et al. Synthetic human amylin and Aβ₄₀ peptides were incubated for promoting the amylin-Aβ aggregation and subjected to the amylin-Aβ sandwich ELISA. […] A robust amylin-Aβ immuno-reactivity signal was detected in co-aggregated amylin-Aβ solution, but not in the homogenous amylin and Aβ solutions (FIG. 2A). The aggregated amylin-Aβ solution was assayed for biochemical characteristics of amyloid by measuring the Thioflavin-T (Th-T) fluorescence signal intensity. […]

Assay [3] shares this target. Nature of the assay: amylin-Aβ sandwich ELISA on co-incubated peptides.

T1 sequence (P05067 672-711 limits assumed): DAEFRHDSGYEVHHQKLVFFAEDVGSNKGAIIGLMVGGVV

B1: human amylin synthetic peptide (AS-60254-1, Anaspec) (peptide)
peptide: KCNTATCATQRLANFLVHSSNNFGAILSSTNVGSNTY
modifications: ends and bridges not checked; cysteine pairing not given here
notes: The same id is used for human amylin in human brain sections and in HIP rat pancreas; also called islet amyloid polypeptide; IAPP
On to B1, for which the “fold increase of signal intensity from the baseline” value in assay [1] is 3 fold. Further, the “fold amylin-Aβ ELISA signal intensity against rat amylin-Aβ co-aggregation” value in assay [2] was roughly 7 fold.

B2: rat amylin (peptide, UniProt P12969 38-74, looked up)
peptide: KCNTATCATQRLANFLVRSSNNLGPVLPPTNVGSNTY
notes: also called rodent amylin; non-amyloidogenic rat amylin
Regarding B2, the binding result in assay [3] is recorded as “binds”.
